Measurements taken from patent publication US20040005669A1 (CREATIVE PEPTIDES SWEDEN, published 2004).
Values belong to the binder of their own block, whether it stands above or below them.

Columns and labels:
[1] = molecular target: rabbit anti-human C-peptide antiserum; assay: competitive radioimmunoassay against labelled C-peptide tracer; expected concentration 3.31 nM
[2] = molecular target: T1, human serum albumin (HSA), immobilised on Sepharose (human, UniProt P02768 25-609); assay: affinity chromatography on HSA-Sepharose
T1 construct: also called HSA-Sepharose; human-serum-albumin (HSA)-Sepharose
T1 sequence (P02768 25-609 limits assumed): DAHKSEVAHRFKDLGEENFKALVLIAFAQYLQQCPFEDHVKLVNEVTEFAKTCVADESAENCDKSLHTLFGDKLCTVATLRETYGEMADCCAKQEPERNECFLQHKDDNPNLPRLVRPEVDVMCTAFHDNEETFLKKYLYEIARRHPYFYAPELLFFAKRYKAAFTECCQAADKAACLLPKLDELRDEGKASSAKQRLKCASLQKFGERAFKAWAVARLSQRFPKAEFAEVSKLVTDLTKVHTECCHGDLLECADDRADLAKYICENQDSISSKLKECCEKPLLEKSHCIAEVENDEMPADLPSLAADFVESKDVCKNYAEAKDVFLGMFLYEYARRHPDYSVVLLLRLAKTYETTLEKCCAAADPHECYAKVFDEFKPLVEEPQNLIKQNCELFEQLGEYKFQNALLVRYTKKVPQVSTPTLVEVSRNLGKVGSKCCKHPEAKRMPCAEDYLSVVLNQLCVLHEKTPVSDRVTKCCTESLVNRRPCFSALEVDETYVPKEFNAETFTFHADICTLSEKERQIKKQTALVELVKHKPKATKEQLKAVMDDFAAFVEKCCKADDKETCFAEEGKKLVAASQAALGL
Procedure: E. coli cells harbouring pTrpBB-C3 and pTrpBB-C7, and thus encoding the fusion proteins BB-C3 and BB-C7, respectively, were grown overnight at 37° C. in shake-flasks containing 10 ml Tryptic Soy Broth (Difco, USA) (30 g/l) supplemented with yeast extract (Difco) (5 g/l) and kanamycin monosulfate (50 mg/l). The overnight cultures were diluted 10-fold to 100 ml into baffled shake-flasks having the same type of media and grown at 37° C. Gene expression was induced at mid-log phase (A_{600 nm}≅1) by the addition of β-indole acrylic acid to 25 mg/l. Cells were harvested 20 hours after induction, by centrifugation at approximately 6000 g for 10 min. Cells were resuspended in 1/20 of the culture volume in TST (50 mM Tris-HCl pH 8.0. 200 mM NaCl, 0.05% Tween 20, 1 mM EDTA), lysed by sonication and centrifuged at approximately 40,000 g. The samples for the sonication were prepared by sedimenting the shake-flask culture by centrifugation, and thereafter resuspending the cells in 30 ml of cold TST buffer. The samples were stored on ice during a 2 minute pulsed sonication which was performed on a Sonics and Materials Inc. (Danbury, Conn., USA) Vibra Cell (500 W) using a 13 mm standard horn tip, a 70% duty cycle (20 kHz) and with the output control set to 6.5. […] Eluted fractions were monitored for protein content by absorbance measurement at 280 nm and relevant fractions were lyophilised.

Assayed concentration [1]: 2.34 nM | Assayed concentration as percent of expected [1]: 71%
Binder: EAEDLQVGQVELGGGPGAGSLQPLALEGSLQ [Insulin C-peptide (from cleavage of fusion protein BB-C7)]

binding result [2]: binds
B1: BB-C7 fusion protein (other)
chain: MKAIFVLNAQHDEAVDANFDQFNKYGVSDYYKNLINNAKTVEGVKDLQAQVVESAKKARISEATDGLSDFLKSQTPAEDTVKSIELAEAKVLANRELDKYGVSDYHKNLINNAKTVEGVKDLQAQVVESAKKARISEATDGLSDFLKSQTPAEDTVKSIELAEAKVLANRELDKYGVSDYYKNLINNAKTVEGVKALIDEILAALPKTDTYKLILNGKTLKGETTTEAVDAATARSFNFPILENSSSVPASQAREAEDLQVGQVELGGGPGAGSLQPLALEGSLQRTASQAREAEDLQVGQVELGGGPGAGSLQPLALEGSLQRTASQAREAEDLQVGQVELGGGPGAGSLQPLALEGSLQRTASQAREAEDLQVGQVELGGGPGAGSLQPLALEGSLQRTASQAREAEDLQVGQVELGGGPGAGSLQPLALEGSLQRTASQAREAEDLQVGQVELGGGPGAGSLQPLALEGSLQRTASQAREAEDLQVGQVELGGGPGAGSLQPLALEGSLQRTASQAVD
notes: Expressed in E. coli from pTrpBB-C7; 54.2 kDa; also called peptide product comprising the fusion partner BB and seven copies of the insulin C-peptide

binding result [2]: binds
B2: BB-C3 fusion protein (other)
chain: MKAIFVLNAQHDEAVDANFDQFNKYGVSDYYKNLINNAKTVEGVKDLQAQVVESAKKARISEATDGLSDFLKSQTPAEDTVKSIELAEAKVLANRELDKYGVSDYHKNLINNAKTVEGVKDLQAQVVESAKKARISEATDGLSDFLKSQTPAEDTVKSIELAEAKVLANRELDKYGVSDYYKNLINNAKTVEGVKALIDEILAALPKTDTYKLILNGKTLKGETTTEAVDAATARSFNFPILENSSSVPASQAREAEDLQVGQVELGGGPGAGSLQPLALEGSLQRTASQAREAEDLQVGQVELGGGPGAGSLQPLALEGSLQRTASQAREAEDLQVGQVELGGGPGAGSLQPLALEGSLQRTASQAVD
notes: Expressed in E. coli from pTrpBB-C3; 39.1 kDa
